Data on nine molecules can be found in patent US20150203577A1 (Chugai, published 2015).

Assay [1] concerns the target T1, mouse FcγRII extracellular domain, C-terminal His tag (mouse, UniProt P08101 30-210).
T1 construct: Whole entry named; also called mFcγRII; mFcgRII
T1 sequence: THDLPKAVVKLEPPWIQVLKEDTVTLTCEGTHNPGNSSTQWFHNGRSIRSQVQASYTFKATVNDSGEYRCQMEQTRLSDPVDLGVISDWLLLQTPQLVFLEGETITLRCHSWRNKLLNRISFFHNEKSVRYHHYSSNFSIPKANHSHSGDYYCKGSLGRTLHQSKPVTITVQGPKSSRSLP
The assay can be described thus: SPR (Biacore T200); KD of H237-mIgG1/MRAL-k0 / KD of variant. An excerpt: (§1) The antibody H chain variable region used was the variable region H237 (SEQ ID NO: 1) of the H chain VH3-IgG1 of the anti-IL-6 receptor antibody Fv4-IgG1 described in WO2009/125825. The antibody L chain commonly used was the L chain MRAL-k0 (SEQ ID NO: 2) of the anti-IL-6 receptor antibody tocilizumab. The aforementioned 7 variants were used as templates to substitute the amino acids at the alteration sites by the amino acids before the alteration. These variants were expressed and purified by the method of Reference Example 1 and evaluated for their binding to mFcγRII and mFcγRIII by the method of Reference Example 2 using Biacore T200.
(§2) Each altered antibody was analyzed for its interaction with each Fcγ receptor prepared above using Biacore T100 (GE Healthcare Japan Corp.), Biacore T200 (GE Healthcare Japan Corp.), Biacore A100, or Biacore 4000. The running buffer used was HBS-EP+ (GE Healthcare Japan Corp.). The assay temperature was set to 25° C. The sensor chips used were chips prepared by immobilizing Protein L (ACTIGEN or BioVision) onto Series S Sensor Chip CM5 (GE Healthcare Japan Corp.) or Series S Sensor Chip CM4 (GE Healthcare Japan Corp.) by the amine coupling method.
Background: Surface plasmon resonance follows binding to a sensor surface in real time, without labels.

For assay [2], the target named is T2, mouse FcγRIII extracellular domain, C-terminal His tag (mouse, UniProt P08508 31-215).
T2 construct: Whole entry named; also called mFcγRIII; mFcgRIII
T2 chain: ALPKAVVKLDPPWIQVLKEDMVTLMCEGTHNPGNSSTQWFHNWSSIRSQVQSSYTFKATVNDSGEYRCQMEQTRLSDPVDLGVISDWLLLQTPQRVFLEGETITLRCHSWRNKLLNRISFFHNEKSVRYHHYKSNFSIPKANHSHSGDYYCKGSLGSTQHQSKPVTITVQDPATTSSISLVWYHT
The assay is described as above.
Excerpt: as §1, §2

B1: H237-MB689/MRAL-k0 (antibody, mouse IgG1, kappa)
heavy: QVQLQESGPGLVKPSETLSLTCAVSGHSISHDHAWSWVRQPPGEGLEWIGFISYSGITNYNPSLQGRVTISRDNSKNTLYLQMNSLRAEDTAVYYCARSLARTTAMDYWGEGTLVTVSSAKTTPPSVYPLAPGSAAQTNSMVTLGCLVKGYFPEPVTVTWNSGSLSSGVHTFPAVLQSDLYTLSSSVTVPSSTWPSETVTCNVAHPASSTKVDKKIVPRDCGCKPCICEVPEVENVFIFPPKPKDVLTITLTPKVTCVVVDISKDDPEVQFSWFVDDVEVHTAQTQPREEQFNSTFRSVSELPIMHQDWLNGKEFKCRVNSAAFPAPIEKTISKTKGRPKAPQVYTIPPPKEQMAKDKVSLTCMITDFFPEDITVEWQWNGQPAENYKNTQPIMDTDGSYFVYSKLNVQKSNWEAGNTFTCSVLHEGLHNHHTEKSLSHSPGK
light: not shown
notes: copies: 2 + 2
As for B1, the “relative mFcγRII-binding activity (mIgG1 = 1)” value in assay [1] came out at 0.413 fold. In addition, the “relative mFcγRIII-binding activity (mIgG1 = 1)” value in assay [2] was 0.075 fold.

B2: H237-MB690/MRAL-k0 (antibody, mouse IgG1, kappa)
heavy: QVQLQESGPGLVKPSETLSLTCAVSGHSISHDHAWSWVRQPPGEGLEWIGFISYSGITNYNPSLQGRVTISRDNSKNTLYLQMNSLRAEDTAVYYCARSLARTTAMDYWGEGTLVTVSSAKTTPPSVYPLAPGSAAQTNSMVTLGCLVKGYFPEPVTVTWNSGSLSSGVHTFPAVLQSDLYTLSSSVTVPSSTWPSETVTCNVAHPASSTKVDKKIVPRDCGCKPCICTPAEVEYVFIFPPKPKDVLTITLTPKVTCVVVDISKDDPEVQFSWFVDDVEVHTAQTQPREEQFNSTFRSVSELPIMHQDWLNGKEFKCRVNSAAFPAPIEKTISKTKGRPKAPQVYTIPPPKEQMAKDKVSLTCMITDFFPEDITVEWQWNGQPAENYKNTQPIMDTDGSYFVYSKLNVQKSNWEAGNTFTCSVLHEGLHNHHTEKSLSHSPGK
light: not shown
notes: copies: 2 + 2
For B2, the “relative mFcγRII-binding activity (mIgG1 = 1)” value in assay [1] came to 1.6 fold. Moreover, the “relative mFcγRIII-binding activity (mIgG1 = 1)” value in assay [2] was determined as 0.188 fold.

B3: H237-MB696/MRAL-k0 (antibody, mouse IgG1, kappa)
heavy: QVQLQESGPGLVKPSETLSLTCAVSGHSISHDHAWSWVRQPPGEGLEWIGFISYSGITNYNPSLQGRVTISRDNSKNTLYLQMNSLRAEDTAVYYCARSLARTTAMDYWGEGTLVTVSSAKTTPPSVYPLAPGSAAQTNSMVTLGCLVKGYFPEPVTVTWNSGSLSSGVHTFPAVLQSDLYTLSSSVTVPSSTWPSETVTCNVAHPASSTKVDKKIVPRDCGCKPCICEVNEVEFVFIFPPKPKDVLTITLTPKVTCVVVDISKDDPEVQFSWFVDDVEVHTAQTQPREEQFNSTFRSVSELPIMHQDWLNGKEFKCRVNSAAFPAPIEKTISKTKGRPKAPQVYTIPPPKEQMAKDKVSLTCMITDFFPEDITVEWQWNGQPAENYKNTQPIMDTDGSYFVYSKLNVQKSNWEAGNTFTCSVLHEGLHNHHTEKSLSHSPGK
light: not shown
notes: copies: 2 + 2
As to B3, in assay [1], the “relative mFcγRII-binding activity (mIgG1 = 1)” value is 0.4 fold. For the same molecule, the “relative mFcγRIII-binding activity (mIgG1 = 1)” value in assay [2] came to 0.094 fold.

B4: H237-MB698/MRAL-k0 (antibody, mouse IgG1, kappa)
heavy: QVQLQESGPGLVKPSETLSLTCAVSGHSISHDHAWSWVRQPPGEGLEWIGFISYSGITNYNPSLQGRVTISRDNSKNTLYLQMNSLRAEDTAVYYCARSLARTTAMDYWGEGTLVTVSSAKTTPPSVYPLAPGSAAQTNSMVTLGCLVKGYFPEPVTVTWNSGSLSSGVHTFPAVLQSDLYTLSSSVTVPSSTWPSETVTCNVAHPASSTKVDKKIVPRDCGCKPCICEVPEEELVFIFPPKPKDVLTITLTPKVTCVVVDISKDDPEVQFSWFVDDVEVHTAQTQPREEQFNSTFRSVSELPIMHQDWLNGKEFKCRVNSAAFPAPIEKTISKTKGRPKAPQVYTIPPPKEQMAKDKVSLTCMITDFFPEDITVEWQWNGQPAENYKNTQPIMDTDGSYFVYSKLNVQKSNWEAGNTFTCSVLHEGLHNHHTEKSLSHSPGK
light: not shown
notes: copies: 2 + 2
In the case of B4, in assay [1], the “relative mFcγRII-binding activity (mIgG1 = 1)” value worked out at 0.194 fold. Further, the “relative mFcγRIII-binding activity (mIgG1 = 1)” value in assay [2] turned out to be 0.024 fold.

B5: H237-MB693/MRAL-k0 (antibody, mouse IgG1, kappa)
heavy: QVQLQESGPGLVKPSETLSLTCAVSGHSISHDHAWSWVRQPPGEGLEWIGFISYSGITNYNPSLQGRVTISRDNSKNTLYLQMNSLRAEDTAVYYCARSLARTTAMDYWGEGTLVTVSSAKTTPPSVYPLAPGSAAQTNSMVTLGCLVKGYFPEPVTVTWNSGSLSSGVHTFPAVLQSDLYTLSSSVTVPSSTWPSETVTCNVAHPASSTKVDKKIVPRDCGCKPCICTDYEVEYVFIFPPKPKDVLTITLTPKVTCVVVDISKDDPEVQFSWFVDDVEVHTAQTQPREEQFNSTFRSVSELPIMHQDWLNGKEFKCRVNSAAFPAPIEKTISKTKGRPKAPQVYTIPPPKEQMAKDKVSLTCMITDFFPEDITVEWQWNGQPAENYKNTQPIMDTDGSYFVYSKLNVQKSNWEAGNTFTCSVLHEGLHNHHTEKSLSHSPGK
light: not shown
notes: copies: 2 + 2
B5: the “relative mFcγRII-binding activity (mIgG1 = 1)” value in assay [1] worked out at 1.22 fold. Further, in assay [2], the “relative mFcγRIII-binding activity (mIgG1 = 1)” value was 0.094 fold.

B6: H237-MB694/MRAL-k0 (antibody)
heavy: QVQLQESGPGLVKPSETLSLTCAVSGHSISHDHAWSWVRQPPGEGLEWIGFISYSGITNYNPSLQGRVTISRDNSKNTLYLQMNSLRAEDTAVYYCARSLARTTAMDYWGEGTLVTVSSAKTTPPSVYPLAPGSAAQTNSMVTLGCLVKGYFPEPVTVTWNSGSLSSGVHTFPAVLQSDLYTLSSSVTVPSSTWPSETVTCNVAHPASSTKVDKKIVPRDCGCKPCICEDPEVEYVFIFPPKPKDVLTITLTPKVTCVVVDISKDDPEVQFSWFVDDVEVHTAQTQPREEQFNSTFRSVSELPIMHQDWLNGKEFKCRVNSAAFPAPIEKTISKTKGRPKAPQVYTIPPPKEQMAKDKVSLTCMITDFFPEDITVEWQWNGQPAENYKNTQPIMDTDGSYFVYSKLNVQKSNWEAGNTFTCSVLHEGLHNHHTEKSLSHSPGK
light: not shown
notes: copies: 2 + 2
Take B6: the “relative mFcγRII-binding activity (mIgG1 = 1)” value in assay [1] turned out to be 0.544 fold. For the same molecule, in assay [2], the “relative mFcγRIII-binding activity (mIgG1 = 1)” value came to 0.031 fold.

B7: H237-MB691/MRAL-k0 (antibody, mouse IgG1, kappa)
heavy: QVQLQESGPGLVKPSETLSLTCAVSGHSISHDHAWSWVRQPPGEGLEWIGFISYSGITNYNPSLQGRVTISRDNSKNTLYLQMNSLRAEDTAVYYCARSLARTTAMDYWGEGTLVTVSSAKTTPPSVYPLAPGSAAQTNSMVTLGCLVKGYFPEPVTVTWNSGSLSSGVHTFPAVLQSDLYTLSSSVTVPSSTWPSETVTCNVAHPASSTKVDKKIVPRDCGCKPCICEVAEVEYVFIFPPKPKDVLTITLTPKVTCVVVDISKDDPEVQFSWFVDDVEVHTAQTQPREEQFNSTFRSVSELPIMHQDWLNGKEFKCRVNSAAFPAPIEKTISKTKGRPKAPQVYTIPPPKEQMAKDKVSLTCMITDFFPEDITVEWQWNGQPAENYKNTQPIMDTDGSYFVYSKLNVQKSNWEAGNTFTCSVLHEGLHNHHTEKSLSHSPGK
light: not shown
notes: copies: 2 + 2
Regarding B7, the “relative mFcγRII-binding activity (mIgG1 = 1)” value in assay [1] came out at 0.582 fold. Moreover, the “relative mFcγRIII-binding activity (mIgG1 = 1)” value in assay [2] was 0.071 fold.

B8: H237-MB692/MRAL-k0 (antibody, mouse IgG1, kappa)
heavy: QVQLQESGPGLVKPSETLSLTCAVSGHSISHDHAWSWVRQPPGEGLEWIGFISYSGITNYNPSLQGRVTISRDNSKNTLYLQMNSLRAEDTAVYYCARSLARTTAMDYWGEGTLVTVSSAKTTPPSVYPLAPGSAAQTNSMVTLGCLVKGYFPEPVTVTWNSGSLSSGVHTFPAVLQSDLYTLSSSVTVPSSTWPSETVTCNVAHPASSTKVDKKIVPRDCGCKPCICEPPEVEYVFIFPPKPKDVLTITLTPKVTCVVVDISKDDPEVQFSWFVDDVEVHTAQTQPREEQFNSTFRSVSELPIMHQDWLNGKEFKCRVNSAAFPAPIEKTISKTKGRPKAPQVYTIPPPKEQMAKDKVSLTCMITDFFPEDITVEWQWNGQPAENYKNTQPIMDTDGSYFVYSKLNVQKSNWEAGNTFTCSVLHEGLHNHHTEKSLSHSPGK
light: not shown
notes: copies: 2 + 2
As to B8, in assay [1], the “relative mFcγRII-binding activity (mIgG1 = 1)” value is 1.75 fold. For the same molecule, in assay [2], the “relative mFcγRIII-binding activity (mIgG1 = 1)” value came out at 0.115 fold.

B9: H237-MB695/MRAL-k0 (antibody, mouse IgG1, kappa)
heavy: QVQLQESGPGLVKPSETLSLTCAVSGHSISHDHAWSWVRQPPGEGLEWIGFISYSGITNYNPSLQGRVTISRDNSKNTLYLQMNSLRAEDTAVYYCARSLARTTAMDYWGEGTLVTVSSAKTTPPSVYPLAPGSAAQTNSMVTLGCLVKGYFPEPVTVTWNSGSLSSGVHTFPAVLQSDLYTLSSSVTVPSSTWPSETVTCNVAHPASSTKVDKKIVPRDCGCKPCICTPNEVEFVFIFPPKPKDVLTITLTPKVTCVVVDISKDDPEVQFSWFVDDVEVHTAQTQPREEQFNSTFRSVSELPIMHQDWLNGKEFKCRVNSAAFPAPIEKTISKTKGRPKAPQVYTIPPPKEQMAKDKVSLTCMITDFFPEDITVEWQWNGQPAENYKNTQPIMDTDGSYFVYSKLNVQKSNWEAGNTFTCSVLHEGLHNHHTEKSLSHSPGK
light: not shown
notes: copies: 2 + 2
As for B9, the “relative mFcγRII-binding activity (mIgG1 = 1)” value in assay [1] is 0.435 fold. Moreover, the “relative mFcγRIII-binding activity (mIgG1 = 1)” value in assay [2] was found to be 0.088 fold.
